Test results: IntAct's records for PubMed 19490898

B1: Ras-related protein Rab-9A (Canis familiaris (dog)), P24408 (parent)
chain: MAGKSSLFKVILLGDGGVGKSSLMNRYVTNKFDTQLFHTIGVEFLNKDLEVDGHFVTMQIWDTAGQERFRSLRTPFYRGSDCCLLTFSVDDSQSFQNLSNWKKEFIYYADVKEPESFPFVILGNKIDISERQVSTEEAQAWCRDNGDYPYFETSAKDATNVAAAFEEAVRRVLATEDRSDHLIQTDTVSLHRKPKPSSSCC

Variants of: B1
Settings: with rhbt3_human RHOBTB3, O94955
rhbt3_human RHOBTB3, O94955, sequence (O94955 whole entry): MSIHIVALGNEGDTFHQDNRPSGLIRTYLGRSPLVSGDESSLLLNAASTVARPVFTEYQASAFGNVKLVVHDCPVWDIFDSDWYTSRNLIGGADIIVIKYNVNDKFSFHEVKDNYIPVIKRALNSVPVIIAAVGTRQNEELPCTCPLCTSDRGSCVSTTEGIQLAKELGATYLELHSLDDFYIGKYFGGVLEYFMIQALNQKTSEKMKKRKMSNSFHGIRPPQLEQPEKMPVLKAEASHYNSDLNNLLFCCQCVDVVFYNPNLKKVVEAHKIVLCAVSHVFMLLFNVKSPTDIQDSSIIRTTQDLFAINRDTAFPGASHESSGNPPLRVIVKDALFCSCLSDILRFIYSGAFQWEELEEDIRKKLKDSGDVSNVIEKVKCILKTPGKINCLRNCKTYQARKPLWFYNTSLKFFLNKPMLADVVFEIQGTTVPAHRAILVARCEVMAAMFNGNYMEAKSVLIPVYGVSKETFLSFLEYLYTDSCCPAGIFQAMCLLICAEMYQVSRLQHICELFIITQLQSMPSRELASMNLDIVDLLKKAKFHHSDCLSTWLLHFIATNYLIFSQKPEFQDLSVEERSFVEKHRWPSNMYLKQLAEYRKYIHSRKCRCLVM

Q: For S21N, which “effect of a mutation on the interaction” value is on record?
A: Its value is “decreasing interaction”.
